T1: CXCR2:YFP fusion protein (UniProt P25025 1-360)
T1 construct: whole, on cells
T1 sequence (looked up): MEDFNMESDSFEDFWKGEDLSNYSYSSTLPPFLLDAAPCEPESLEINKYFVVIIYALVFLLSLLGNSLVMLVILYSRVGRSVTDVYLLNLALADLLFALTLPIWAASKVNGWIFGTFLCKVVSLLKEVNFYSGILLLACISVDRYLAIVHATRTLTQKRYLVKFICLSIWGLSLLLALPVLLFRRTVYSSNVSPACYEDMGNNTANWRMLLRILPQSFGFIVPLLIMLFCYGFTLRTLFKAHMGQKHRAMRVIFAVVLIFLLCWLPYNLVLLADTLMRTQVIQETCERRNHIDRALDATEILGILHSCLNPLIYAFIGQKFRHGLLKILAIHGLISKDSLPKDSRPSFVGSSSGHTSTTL


Tests used:
[1] = target: constitutively active mutant (CAM) Asn^119Ser CXCR4 receptor (human) (UniProt P61073); test: cell-based or functional assay
[2] = target: T2, human CXCR4 receptor (human, UniProt P61073 1-352); test: cell-based or functional assay
[3] = target: T2, human CXCR4 receptor; test: competition of [^125I]SDF-1 (1 nM) binding, Mab at 100 nM, SPA, CHO-K1 membranes expressing human CXCR4
Method: (§1) CHO-K1 cells, stably and constitutively expressing human CXCR4 receptor were obtained upon transfection of naïve CHO-K1 cells (ATCC CCL-61) with a mammalian expression vector carrying the whole coding sequence of human CXCR4 receptor (RefSeq NM_{—}003467). Cells were propagated in complete culture medium [DMEM-Ham's F12 supplemented with 5% fetal calf serum (FCS) and 500 μg/ml of geneticin]. Radioligand binding experiments were conducted on cell membranes obtained upon mechanical scrapping of CHO/CXCR4 cells in lysis buffer [Hepes 20 mM, pH 7.4, NaCl 150 mM] followed by centrifugation (10000 g, 15 min). […] Upon centrifugation [1000 g for 10 min.] radioactive counts were measured in a scintillation counter (TopCount, Perkin Elmer).

[4] = target: T2, human CXCR4 receptor; test: competition of [^125I]SDF-1 (1 nM) binding, SPA, CHO-K1 membranes expressing human CXCR4
Method: as §1

[5] = target: T2, human CXCR4 receptor; test: dose-dependent inhibition of [^125I]SDF-1 binding, SPA, CHO-K1 membranes expressing human CXCR4
Method: as §1

[6] = target: T2, human CXCR4 receptor; test: flow cytometry competition on CXCR4 transfected NIH3T3 cells; competitor: biotinylated murine 515H7
Description: In a first series of experiments, we constructed and analysed the anti-CXCR4 binding activities of the three first humanized variants. […] Therefore, VH1 was combined with the three different variants of VL (FIG. 23D-F).

[7] = target: T1, CXCR2:YFP fusion protein; test: BRET in transiently transfected HEK293 cells
Method: The day after, cells were distributed in poly-lysine pre-coated white 96 MW plates in complete culture medium [DMEM supplemented with 10% FBS]. Cells were first cultivated at 37° C. with CO₂ 5% in order to allow cell attachment to the plate. Cells were then starved with 200 μl DMEM/well overnight. Immediately prior to the BRET experiment, DMEM was removed and cells were quickly washed with PBS. […] After incubation for further 10 minutes at 37° C., light-emission acquisition at 485 nm and 530 nm was initiated using the Mithras LB940 multilabel reader (Berthold) (1 s/wavelength/well repeated 15 times at room temperature).
Calculation of BRET ratio was performed as previously described (Angers et al., 2000): [(emission_{530 nm})−(emission_{485 nm})×Cf]/(emission_{485 nm}), where Cf=(emission_{530 nm}) (emission_{485 nm}) for cells expressing the Rluc fusion protein alone under the same experimental conditions. […] For sake of readability, results are expressed in milliBRET units (mBU); mBU corresponds to the BRET ratio multiplied by 1000.

Row | Molecule | IC50 in [^35S]GTPγS binding, NIH3T3/CXCR4 cells [2] [nM] | inhibition of SDF-1-induced β-arrestin recruitment (BRET) [2] [%] | % of inhibition of [^35S]GTPγS binding stimulated by SDF-1 (100 nM) [2] [%] | percentage of inhibition of SDF-1-induced BRET increase, CXCR4 homo-dimers [2] [%] | % inhibition of [^125I]SDF-1 [4] [%] | also measured
1 | T140 (peptide) | – | – | – | – | – | inhibition of SDF-1-stimulated [^35S]GTPγS binding [1]: -159%; inhibition of basal [^35S]GTPγS binding [1]: -17%
2 | anti-CXCR4 chimeric Mab c515H7 (antibody, human IgG1, kappa, V domains shown, also called chimeric 515H7; chimeric antibody) VH: EVNLVESGGGLVQPGGSLRLSCATSGFTFTDNYMSWVRQPPGKALEWLGFIRNKANGYTTDYSASVRGRFTISRDNSQSILYLQMNALRAEDSATYYCARDVGSNYFDYWGQGTTLTVSS VL: DIVMSQSPSSLAVSAGEKVTMSCKSSQSLFNSRTRKNYLAWYQQKPGQSPKLLIYWASARDSGVPARFTGSGSETYFTLTISRVQAEDLAVYYCMQSFNLRTFGQGTKVEIKR | 1.5 | ~93 | – | – | – | IC50 in [^35S]GTPγS binding, Hela cells [2]: 0.6 nM; decrease in SDF-1-induced U937 cells migration [2]: > 80%; % inhibition of [^125I]SDF-1 [3]: 55%
3 | humanized antibody Hz515H7 VH1 D76N VL2.2 (antibody, human IgG1, kappa, V domains shown, human IgG1/kappa format; also called hz515H7VL2.2) VH: EVQLVESGGGLVQPGRSLRLSCTASGFTFTDNYMSWVRQAPGKGLEWVGFIRNKANGYTTEYAASVKGRFTISRDNSKSIAYLQMNSLKTEDTAVYYCARDVGSNYFDYWGQGTLVTVSS VL: DIVMTQSPDSLAVSLGERATMSCKSSQSLFNSRTRKNYLAWYQQKPGQPPKLLIYWASARDSGVPDRFTGSGSETYFTLTISRVQAEDVAVYYCMQSFNLRTFGQGTKVEIKR | 5.19 | ~82 | 66 | ~33 | 61 | IC50 [5]: 5.91 nM
4 | humanized antibody Hz515H7 VH1/c515H7 VL (antibody, human IgG1, V domains shown, also called VH1 combined with the chimeric VL (cVL); VH1 combined with the murine VL) VH: EVQLVESGGGLVQPGRSLRLSCTASGFTFTDNYMSWVRQAPGKGLEWVGFIRNKANGYTTEYAASVKGRFTISRDDSKSIAYLQMNSLKTEDTAVYYCARDVGSNYFDYWGQGTLVTVSS VL: DIVMSQSPSSLAVSAGEKVTMSCKSSQSLFNSRTRKNYLAWYQQKPGQSPKLLIYWASARDSGVPARFTGSGSETYFTLTISRVQAEDLAVYYCMQSFNLRTFGQGTKVEIKR | – | – | – | – | – | binding result [6]: binds
5 | hz515H7 VH1 VL2 (antibody, human IgG1, kappa, V domains shown, also called VH1 combined with variant 2 of VL) VH: EVQLVESGGGLVQPGRSLRLSCTASGFTFTDNYMSWVRQAPGKGLEWVGFIRNKANGYTTEYAASVKGRFTISRDDSKSIAYLQMNSLKTEDTAVYYCARDVGSNYFDYWGQGTLVTVSS VL: DIVMTQSPSSLAVSLGERATMSCKSSQSLFNSRTRKNYLAWYQQKPGQSPKLLIYWASARDSGVPARFTGSGSETYFTLTISRVQAEDLAVYYCMQSFNLRTFGQGTKVEIKR | – | – | – | – | – | binding result [6]: binds
6 | humanized antibody Hz515H7 VH1 VL1 (antibody, human IgG1, kappa, V domains shown, human IgG1/kappa format; also called humanized variant 515H7 VH variant 1 VL variant 1) VH: EVQLVESGGGLVQPGRSLRLSCTASGFTFTDNYMSWVRQAPGKGLEWVGFIRNKANGYTTEYAASVKGRFTISRDDSKSIAYLQMNSLKTEDTAVYYCARDVGSNYFDYWGQGTLVTVSS VL: DIVMTQSPDSLAVSLGERATINCKSSQSLFNSRTRKNYLAWYQQKPGQPPKLLIYWASTRESGVPDRFSGSGSGTDFTLTISSLQAEDVAVYYCMQSFNLRTFGQGTKVEIKR | – | – | – | – | – | binding result [6]: binds
7 | CXCR4/Rluc fusion protein (receptor, UniProt P61073 1-352, looked up, whole, on cells; Transiently expressed in HEK293 cells for BRET; also called CXCR4 tagged with luciferase; not shown: Renilla reniformis luciferase (Rluc)) MEGISIYTSDNYTEEMGSGDYDSMKEPCFREENANFNKIFLPTIYSIIFLTGIVGNGLVILVMGYQKKLRSMTDKYRLHLSVADLLFVITLPFWAVDAVANWYFGNFLCKAVHVIYTVNLYSSVLILAFISLDRYLAIVHATNSQRPRKLLAEKVVYVGVWIPALLLTIPDFIFANVSEADDRYICDRFYPNDLWVVVFQFQHIMVGLILPGIVILSCYCIIISKLSHSKGHQKRKALKTTVILILAFFACWLPYYIGISIDSFILLEIIKQGCEFENTVHKWISITEALAFFHCCLNPILYAFLGAKFKTSAQHALTSVSRGSSLKILSKGKRGGHSSVSTESESSSFHSS | – | – | – | – | – | binding result [7]: binds

Now from value to molecule, other results behind:

Row | IC50 in [^35S]GTPγS binding, NIH3T3/CXCR4 cells [2] [nM] | inhibition of SDF-1-induced β-arrestin recruitment (BRET) [2] [%] | % of inhibition of [^35S]GTPγS binding stimulated by SDF-1 (100 nM) [2] [%] | percentage of inhibition of SDF-1-induced BRET increase, CXCR4 homo-dimers [2] [%] | % inhibition of [^125I]SDF-1 [4] [%] | Molecule | also measured
8 | 1.9 | ~95 | – | – | – | murine monoclonal antibody 515H7 (antibody, V domains shown) VH: EVNLVESGGGLVQPGGSLRLSCATSGFTFTDNYMSWVRQPPGKALEWLGFIRNKANGYTTDYSASVRGRFTISRDNSQSILYLQMNALRAEDSATYYCARDVGSNYFDYWGQGTTLTVSS VL: DIVMSQSPSSLAVSAGEKVTMSCKSSQSLFNSRTRKNYLAWYQQKPGQSPKLLIYWASARDSGVPARFTGSGSETYFTLTISRVQAEDLAVYYCMQSFNLRTFGQGTKVEIK | IC50 in [^35S]GTPγS binding, Hela cells [2]: 0.2 nM; decrease in SDF-1-induced U937 cells migration [2]: > 80%
9 | 4.05 | ~81 | 69 | ~65 | 68 | humanized antibody Hz515H7 VH1 D76N VL2.1 (antibody, human IgG1, kappa, V domains shown, human IgG1/kappa format; also called hz515H7VL2.1) VH: EVQLVESGGGLVQPGRSLRLSCTASGFTFTDNYMSWVRQAPGKGLEWVGFIRNKANGYTTEYAASVKGRFTISRDNSKSIAYLQMNSLKTEDTAVYYCARDVGSNYFDYWGQGTLVTVSS VL: DIVMTQSPDSLAVSLGERATMSCKSSQSLFNSRTRKNYLAWYQQKPGQPPKLLIYWASARDSGVPDRFSGSGSETYFTLTISRVQAEDLAVYYCMQSFNLRTFGQGTKVEIKR | IC50 [5]: 6.69 nM
10 | 3.86 | ~94 | 86 | ~88 | 77 | humanized antibody Hz515H7 VH1 D76N VL2 (antibody, human IgG1, kappa, V domains shown, human IgG1/kappa format; Biotinylated in the IHC study; also called hz515H7VL2; hz515H7 VH D76N VL2) VH: EVQLVESGGGLVQPGRSLRLSCTASGFTFTDNYMSWVRQAPGKGLEWVGFIRNKANGYTTEYAASVKGRFTISRDNSKSIAYLQMNSLKTEDTAVYYCARDVGSNYFDYWGQGTLVTVSS VL: DIVMTQSPSSLAVSLGERATMSCKSSQSLFNSRTRKNYLAWYQQKPGQSPKLLIYWASARDSGVPARFTGSGSETYFTLTISRVQAEDLAVYYCMQSFNLRTFGQGTKVEIKR | IC50, SDF-1 induced U937 cell migration [2]: 4.53 ng/mL; IC50 [5]: 1.44 nM
11 | 8.5 | ~71 | 58 | ~21 | 49 | humanized antibody Hz515H7 VH1 D76N VL2.3 (antibody, human IgG1, kappa, V domains shown, human IgG1/kappa format; also called hz515H7VL2.3) VH: EVQLVESGGGLVQPGRSLRLSCTASGFTFTDNYMSWVRQAPGKGLEWVGFIRNKANGYTTEYAASVKGRFTISRDNSKSIAYLQMNSLKTEDTAVYYCARDVGSNYFDYWGQGTLVTVSS VL: DIVMTQSPDSLAVSLGERATMSCKSSQSLFNSRTRKNYLAWYQQKPGQPPKLLIYWASARDSGVPDRFTGSGSETYFTLTISSLQAEDLAVYYCMQSFNLRTFGQGTKVEIKR | –

Reference: patent US20130031647A1 (PIERRE FABRE MEDICAMENT, published 2013)
